PMC10706732

Target: Human ceruloplasmin (human) (UniProt P00450)
Assay: SPR; Biacore X100; human CP immobilised on CM5 chip by EDC/NHS (3.3 ng/mm2); LF or LF/8OA as analyte in HBS-P+ (150 mM NaCl, 10 mM Hepes pH 7.5, 0.05% polyoxyethylene sorbitan), 30 uL/min; 1:1 Langmuir model

Chain of UniProt P00450 (P00450 20-1065): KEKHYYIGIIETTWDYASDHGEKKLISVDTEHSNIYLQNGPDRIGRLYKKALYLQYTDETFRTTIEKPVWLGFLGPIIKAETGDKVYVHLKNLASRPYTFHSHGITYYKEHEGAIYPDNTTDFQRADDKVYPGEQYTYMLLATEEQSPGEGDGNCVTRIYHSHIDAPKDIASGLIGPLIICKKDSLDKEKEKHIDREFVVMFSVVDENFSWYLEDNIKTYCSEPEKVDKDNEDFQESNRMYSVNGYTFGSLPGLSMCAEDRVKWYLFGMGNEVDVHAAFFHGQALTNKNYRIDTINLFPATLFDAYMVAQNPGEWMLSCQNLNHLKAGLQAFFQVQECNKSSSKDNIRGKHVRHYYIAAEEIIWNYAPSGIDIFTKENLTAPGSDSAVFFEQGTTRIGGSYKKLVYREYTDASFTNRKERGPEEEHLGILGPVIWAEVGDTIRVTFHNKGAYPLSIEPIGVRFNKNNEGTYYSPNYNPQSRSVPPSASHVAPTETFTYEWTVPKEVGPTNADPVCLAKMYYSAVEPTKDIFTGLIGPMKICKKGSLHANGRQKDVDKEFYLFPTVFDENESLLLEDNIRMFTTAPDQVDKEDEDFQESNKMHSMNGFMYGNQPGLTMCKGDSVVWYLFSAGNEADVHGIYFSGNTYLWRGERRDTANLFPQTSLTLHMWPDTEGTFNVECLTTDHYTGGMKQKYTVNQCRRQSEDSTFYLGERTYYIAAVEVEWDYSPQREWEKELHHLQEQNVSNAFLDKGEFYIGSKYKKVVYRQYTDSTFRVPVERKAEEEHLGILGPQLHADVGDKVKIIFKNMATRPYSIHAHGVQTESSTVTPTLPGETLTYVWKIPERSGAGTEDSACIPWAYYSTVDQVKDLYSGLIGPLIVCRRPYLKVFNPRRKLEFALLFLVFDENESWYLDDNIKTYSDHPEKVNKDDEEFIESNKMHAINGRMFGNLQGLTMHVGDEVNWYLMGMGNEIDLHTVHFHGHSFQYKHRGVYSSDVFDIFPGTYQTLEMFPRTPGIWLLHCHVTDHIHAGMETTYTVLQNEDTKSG

Kd [nM]	Substance
407	Complex formed by one human lactoferrin molecule and eight molecules of oleic acid
367	Recombinant human lactoferrin (natural protein)
